B1: Nb 2-38 (VHH)
VHH: QVQLVESGGGLVQAGGSLRLSCAAAARFSTSAMGWFRQAPGKEREFVAAISWSNTNTHYADTVKGRFTISADTAKETVDLQMNSLKPEDTAVYYCVQGGWGIRQPIIVDYWGKGTQVTVSS
B2: Nb 2-45 (VHH)
VHH: QVQLVESGGGLVQAGGSLRLSCTASGYDFSILAIAWYRQAPGKERELVAAISRVGSTDYADSVKGRFTISRDNTKNTVSLQMDSLKPEDTAVYYCNAGIPMTTVLSGLGFWGQGTQVTVSS
B3: Nb 2-31 (VHH)
VHH: QVQLVESGGGLVQAGESLRLSCAASKPTFRNFAAGWFRQTPGKDREFVAVIEYDGDSAYYADSVKGRFTISRDNAKNTVYLQMNRLKPGDTAVYICAIGGNHYDPSKYYTADEYDYWGQGTQVTVSS
B4: Nb 1-22 (VHH)
VHH: HVQLVESGGGLVQPGGSLRLSCAASGRSFNSYLMGWFRQAPGKEREFVAWISGSPHDIIRYRDSVKDRFTISRDNAKNTVYLQMNSLKPVDTAVYYCAVGSLRVGSFSPDYWGQGTQVTVSS

The binders below were run against WT RBD of SARS-CoV-2 (S protein residues 319–539) (SARS-CoV-2, wild type (GenBank …, UniProt P0DTC2)) (assay: ELISA).
B1: binds. B2: binds. B3: binds. B4: binds.
